In patent publication US20040265797A1 (CHIRON, published 2004):
Square brackets hold non-standard residues; d marks the D form. Ends that are not written are not given here.

B1: Analog 82 (peptide)
peptide: [dA]EFFKLGPNGYVYLHSA-NH2
modifications: N-terminus assumed
SMILES: CC(C)C[C@H](NC(=O)[C@H](CCCCN)NC(=O)[C@H](Cc1ccccc1)NC(=O)[C@H](Cc1ccccc1)NC(=O)[C@H](CCC(=O)O)NC(=O)[C@@H](C)N)C(=O)NCC(=O)N1CCC[C@H]1C(=O)N[C@@H](CC(N)=O)C(=O)NCC(=O)N[C@@H](Cc1ccc(O)cc1)C(=O)N[C@H](C(=O)N[C@@H](Cc1ccc(O)cc1)C(=O)N[C@@H](CC(C)C)C(=O)N[C@@H](Cc1c[nH]cn1)C(=O)N[C@@H](CO)C(=O)N[C@@H](C)C(N)=O)C(C)C
B2: Peptide 9 (synthetic peptide of clone 9) (peptide)
peptide: AEFFKLGPNGYVYLHSA-NH2
notes: also called analogs 62-64
B3: Analog 88 (peptide)
peptide: AEFFKLG[dP]NGYVYLHSA-NH2
modifications: N-terminus assumed
SMILES: CC(C)C[C@H](NC(=O)[C@H](CCCCN)NC(=O)[C@H](Cc1ccccc1)NC(=O)[C@H](Cc1ccccc1)NC(=O)[C@H](CCC(=O)O)NC(=O)[C@H](C)N)C(=O)NCC(=O)N1CCC[C@@H]1C(=O)N[C@@H](CC(N)=O)C(=O)NCC(=O)N[C@@H](Cc1ccc(O)cc1)C(=O)N[C@H](C(=O)N[C@@H](Cc1ccc(O)cc1)C(=O)N[C@@H](CC(C)C)C(=O)N[C@@H](Cc1c[nH]cn1)C(=O)N[C@@H](CO)C(=O)N[C@@H](C)C(N)=O)C(C)C
B4: Analog 95 (peptide)
peptide: AEFFKLGPNGYVYLH[dS]A-NH2
modifications: N-terminus assumed
SMILES: CC(C)C[C@H](NC(=O)[C@H](CCCCN)NC(=O)[C@H](Cc1ccccc1)NC(=O)[C@H](Cc1ccccc1)NC(=O)[C@H](CCC(=O)O)NC(=O)[C@H](C)N)C(=O)NCC(=O)N1CCC[C@H]1C(=O)N[C@@H](CC(N)=O)C(=O)NCC(=O)N[C@@H](Cc1ccc(O)cc1)C(=O)N[C@H](C(=O)N[C@@H](Cc1ccc(O)cc1)C(=O)N[C@@H](CC(C)C)C(=O)N[C@@H](Cc1c[nH]cn1)C(=O)N[C@H](CO)C(=O)N[C@@H](C)C(N)=O)C(C)C
B5: Analog 96 (peptide)
peptide: AEFFKLGPNGYVYLHS[dA]-NH2
modifications: N-terminus assumed
SMILES: CC(C)C[C@H](NC(=O)[C@H](CCCCN)NC(=O)[C@H](Cc1ccccc1)NC(=O)[C@H](Cc1ccccc1)NC(=O)[C@H](CCC(=O)O)NC(=O)[C@H](C)N)C(=O)NCC(=O)N1CCC[C@H]1C(=O)N[C@@H](CC(N)=O)C(=O)NCC(=O)N[C@@H](Cc1ccc(O)cc1)C(=O)N[C@H](C(=O)N[C@@H](Cc1ccc(O)cc1)C(=O)N[C@@H](CC(C)C)C(=O)N[C@@H](Cc1c[nH]cn1)C(=O)N[C@@H](CO)C(=O)N[C@H](C)C(N)=O)C(C)C
B6: Analog 89 (peptide)
peptide: AEFFKLGP[dN]GYVYLHSA-NH2
modifications: N-terminus assumed
SMILES: CC(C)C[C@H](NC(=O)[C@H](CCCCN)NC(=O)[C@H](Cc1ccccc1)NC(=O)[C@H](Cc1ccccc1)NC(=O)[C@H](CCC(=O)O)NC(=O)[C@H](C)N)C(=O)NCC(=O)N1CCC[C@H]1C(=O)N[C@H](CC(N)=O)C(=O)NCC(=O)N[C@@H](Cc1ccc(O)cc1)C(=O)N[C@H](C(=O)N[C@@H](Cc1ccc(O)cc1)C(=O)N[C@@H](CC(C)C)C(=O)N[C@@H](Cc1c[nH]cn1)C(=O)N[C@@H](CO)C(=O)N[C@@H](C)C(N)=O)C(C)C
B7: Analog 94 (peptide)
peptide: AEFFKLGPNGYVYL[dH]SA-NH2
modifications: N-terminus assumed
SMILES: CC(C)C[C@H](NC(=O)[C@H](CCCCN)NC(=O)[C@H](Cc1ccccc1)NC(=O)[C@H](Cc1ccccc1)NC(=O)[C@H](CCC(=O)O)NC(=O)[C@H](C)N)C(=O)NCC(=O)N1CCC[C@H]1C(=O)N[C@@H](CC(N)=O)C(=O)NCC(=O)N[C@@H](Cc1ccc(O)cc1)C(=O)N[C@H](C(=O)N[C@@H](Cc1ccc(O)cc1)C(=O)N[C@@H](CC(C)C)C(=O)N[C@H](Cc1c[nH]cn1)C(=O)N[C@@H](CO)C(=O)N[C@@H](C)C(N)=O)C(C)C
B8: Analog 83 (peptide)
peptide: A[dE]FFKLGPNGYVYLHSA-NH2
modifications: N-terminus assumed
SMILES: CC(C)C[C@H](NC(=O)[C@H](CCCCN)NC(=O)[C@H](Cc1ccccc1)NC(=O)[C@H](Cc1ccccc1)NC(=O)[C@@H](CCC(=O)O)NC(=O)[C@H](C)N)C(=O)NCC(=O)N1CCC[C@H]1C(=O)N[C@@H](CC(N)=O)C(=O)NCC(=O)N[C@@H](Cc1ccc(O)cc1)C(=O)N[C@H](C(=O)N[C@@H](Cc1ccc(O)cc1)C(=O)N[C@@H](CC(C)C)C(=O)N[C@@H](Cc1c[nH]cn1)C(=O)N[C@@H](CO)C(=O)N[C@@H](C)C(N)=O)C(C)C
B9: Analog 55 (peptide)
peptide: AESTYHHLS[dL]GYMYTLN-NH2
modifications: N-terminus assumed
SMILES: CSCC[C@H](NC(=O)[C@H](Cc1ccc(O)cc1)NC(=O)CNC(=O)[C@@H](CC(C)C)NC(=O)[C@H](CO)NC(=O)[C@H](CC(C)C)NC(=O)[C@H](Cc1c[nH]cn1)NC(=O)[C@H](Cc1c[nH]cn1)NC(=O)[C@H](Cc1ccc(O)cc1)NC(=O)[C@@H](NC(=O)[C@H](CO)NC(=O)[C@H](CCC(=O)O)NC(=O)[C@H](C)N)[C@@H](C)O)C(=O)N[C@@H](Cc1ccc(O)cc1)C(=O)N[C@H](C(=O)N[C@@H](CC(C)C)C(=O)N[C@@H](CC(N)=O)C(N)=O)[C@@H](C)O
B10: Analog 74 (peptide 9, Tyr at position 11 to alanine) (peptide)
peptide: AEFFKLGPNGAVYLHSA-NH2
B11: Analog 76 (peptide 9, Tyr at position 13 to alanine) (peptide)
peptide: AEFFKLGPNGYVALHSA-NH2
B12: Analog 75 (peptide 9, Val at position 12 to alanine) (peptide)
peptide: AEFFKLGPNGYAYLHSA-NH2
B13: Analog 69 (peptide 9, Leu at position 6 to alanine) (peptide)
peptide: AEFFKAGPNGYVYLHSA-NH2

These binders were tested against T1, Soluble recombinant human urokinase receptor (suPAR) (human, UniProt Q03405 23-299, limits assumed, biotinylated in the plate assays (sites not given)) (assay: competition with phage displaying peptide 9 for soluble uPAR).
T1 construct: Only called a soluble truncated form of the urokinase receptor; also called soluble uPAR; biotinylated suPAR
Method: (§1) The final anti-M13 conjugate dilution was 1:4000.
(§2) These concentrations were calculated based on the synthesis reactions.

T1 sequence (Q03405 23-299 limits assumed): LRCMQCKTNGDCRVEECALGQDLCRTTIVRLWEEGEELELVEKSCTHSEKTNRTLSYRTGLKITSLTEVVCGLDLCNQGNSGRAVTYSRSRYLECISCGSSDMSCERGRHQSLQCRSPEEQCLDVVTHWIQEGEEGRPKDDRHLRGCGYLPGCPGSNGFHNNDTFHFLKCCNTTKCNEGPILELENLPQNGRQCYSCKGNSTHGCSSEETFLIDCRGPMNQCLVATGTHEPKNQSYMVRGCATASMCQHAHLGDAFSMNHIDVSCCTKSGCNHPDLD

% Inhibition at 5 uM [%]	% Inhibition at 2.5 uM [%]	Binder
41		B1
71	59	B2
76		B3
59	47	B4
40		B5
13	15	B6
41	36	B7
59	44	B8

What follows are binders tested against T1, Soluble recombinant human urokinase … (assay: competition with phage displaying peptide 25 for soluble uPAR).
Method: as §1, §2

% Inhibition at 2.5 uM [%]	% Inhibition at 5 uM [%]	Binder
56	80	B9

What follows are binders tested against T1, Soluble recombinant human urokinase … (assay: alanine scan of peptide 9; competition with phage displaying peptide 9 for soluble uPAR).
Method: Streptavidin, 100 μl (0.1 mg/ml) in 50 mM Na₂CO₃, pH 9.6, was added to MaxiSorp wells (Nunc), incubated overnight at 4 C, and then washed with PBS/BSA. […] Competitive peptide inhibitors were added to the wells immediately prior to addition of the bacteriophage. The wells were incubated for one hour at room temperature, then washed and bound bacteriophage eluted with 6M urea in 0.1N HCl, pH 2.5. After 15 minutes, the urea eluate was brought to neutral pH by addition of 2M Tris base and the bacteriophage titers of input stocks and elutions measured by plaque formation assay. Results were expressed as the percent of input bacteriophage which bind to the wells. Alternatively, the amount of bacteriophage was determined in an ELISA where phage were preincubated with HRP-conjugated anti-M13 antibody for 30 minutes at room temperature before dispensing into wells prepared as above and incubated for one hour at room temperature. The final anti-M13 conjugate dilution was 1:4000. After washing, TMB substrate (100 μl/well) was added and color development was stopped with 0.8N H₂SO₄ (100 μl/well). The absorbance at 450 nm was then measured in a 96 well plate reader.
Approximately 10⁸ plaque forming units of the phage were used in the assay.

binding result	Binder
no binding	B10
no binding	B11
no binding	B12
no binding	B13

The binders below were run against T1, Soluble recombinant human urokinase … (assay: competition with phage displaying peptide 9 for soluble uPAR; * quantity tested could have been lower).
Method: as §1, §2

% Inhibition at 2.5 uM [%]	Binder
24	B1
80	B3
38	B5
